Substrate in the data set: NC(=O)C[C@H](N)C(=O)O
Put plainly: purified protein. The format is biochemical, Thermococcus sibiricus. As to conditions: native unconjugated enzyme, 25 mM borate buffer, pH 8.5 (Table 4; Figure 5 legend says pH 7.5, Methods pH 9.3), 85 °C.

B1: TsA (L-asparaginase from Thermococcus sibiricus) (Thermococcus sibiricus MM 739) (protein)
chain: MKKLLIIGTGGTIASAKTEQGYKSVLKIDEILKLAKIKLENGYKIDSTNIMNIDSTLIHPEDWEIIAKEVFKALDDYDGIIITHGTDTLAYTASMLSFMIKNPNKPIVLTGSMLPITENGSDAPRNIRTAIKFAMEDVAGVFVAFMDKIMLGCRTSKVRTLGLNAFMSINYPDVAYVKGEKILYNIPKEKFQPNGSPELDTKYEPRVVVLRVTPGLGGEIIDAVLDAGYKGIVLEGYGAGGLPYRKSNLLSKIKEITPKIPVIMTTQALYDGVDMRKYEVGRKALETGIIPAKDMTKEATITKLMWALGHTKDVEKIREIMHTNYVNEIKS
notes: synthetic gene in pET-28a(+), E. coli BL21(DE3), SP-Sepharose purified (no tag mentioned); gene span 996 nt
By Km is commonly meant the substrate concentration at which the rate is half of its maximum. By Vmax is commonly meant the top rate of the reaction or transport when substrate is in excess. B1: the Michaelis constant (Km) is given as 6.1 ± 1.3 mM and the Vmax turned out to be 470 µmol/min/mg.
